B1: recombinant kinetoplastid membrane protein-11 (r-KMP-11), wild type (natural protein, Leishmania donovani)
chain: MATTYEEFSAKLDRLDQEFNRKMQEQNAKFFADKPDESTLSPEMREHYEKFERMIKEHTEKFNKKMHEHSEHFKQKFAELLEQQKAAQYPSK
B2: Alexa488-maleimide labelled r-KMP-11 S38C (natural protein, Leishmania donovani)
chain: B1 chain with S38C
modifications: Alexa 488 maleimide on the single cysteine (S38C); labeling percentage 86%

Data set [1] concerns the molecule itself. The data set is described as follows: negative stain electron microscopy.
Data set [2] concerns the molecule itself. The data set is described as follows: single-molecule photobleaching step analysis.
The target of data set [3] is B1. The data set is described as follows: fluorescence correlation spectroscopy.

Changes are numbered by the printed parent chain. In names and notes the source's numbering stands.

Consider B1, for which, in data set [1], the “stoichiometry N” value is 4.
With B2, in data set [2], the “stoichiometry N” value is 4. The binding result in data set [3] is given as “binds”.

By stoichiometry N is commonly meant a count of units in the complex or per binding partner.

For the origin of these results see paper doi:10.1101/2024.07.15.603533 (bioRxiv, 2024).
